Reference: the supplement of paper PMC9732359
± gives the uncertainty stated by the source.

Test: protein stability index of a GFP-peptide fusion (yeast GPS) (PSI 1-4); higher = more stable; sorted into four equal gates, so the index is relative within each strain
In short: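 Tiled 17-residue yeast protein peptides were fused downstream of GFP in a plasmid that also expresses Cherry, and the pooled library was carried in yeast. Mid-log cultures in leucine-free medium were sorted into four equal gates by GFP/Cherry fluorescence ratio, and plasmids from each gate were PCR-amplified and Illumina-sequenced, with reads assigned to strains by barcodes. The protein stability index for each peptide was each gate's read frequency times its gate number, summed.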

| Sequence | protein stability index (doa10∆) | protein stability index (pdr5∆) | protein stability index (san1∆) | protein stability index (ubr1∆) |
| --- | --- | --- | --- | --- |
| EDRNQRIKEMYWKLWID [FAS1] | 3.17 ± 0.13 | 3.46 ± 0.1 | 3.16 ± 0.11 | 3.08 ± 0.087 |
| IASTEKPENKTDKVSLS [SIR4] | 3.21 ± 0.069 | 3.1 ± 0.09 | 3.17 ± 0.067 | 2.89 ± 0.088 |
| ISSLGYRSHIFATNEER [SWI3] | 2.3 ± 0.072 | 1.96 ± 0.056 | 2.34 ± 0.055 | 2.33 ± 0.045 |
| YMEQGNNKIITLVKGPK [SKI6] | 2.76 ± 0.054 | 3.11 ± 0.085 | 2.8 ± 0.054 | 2.96 ± 0.034 |
| SKEVRGSKIRVMWGKVT [RPL33A] | 2.68 ± 0.1 | 2.35 ± 0.12 | 2.4 ± 0.092 | 2.6 ± 0.067 |
| ASLGIGLAAMGSANIEV [RPN2] | 1.65 ± 0.088 | 1.76 ± 0.079 | 1.74 ± 0.091 | 1.53 ± 0.067 |
| GINKKKLLAISKFNNAD [RPC31] |  | 1.93 ± 0.18 | 2.97 ± 0.23 |  |
| PEELARILQQLKLDKII [RGR1] | 2.51 ± 0.059 | 1.49 ± 0.05 | 3.15 ± 0.076 | 2.72 ± 0.063 |
| NNYDDFMLSDDEGMESI [RRI2] | 2.54 ± 0.26 | 3.71 ± 0.19 | 3.37 ± 0.18 |  |
| TSTEKLYKLNDKIAVAV [PRE9] | 2.84 ± 0.072 | 2.93 ± 0.081 | 3.1 ± 0.081 | 2.95 ± 0.068 |
| HIHDLEKFSPKSFISKL [SRP54] | 1.81 ± 0.044 | 2.12 ± 0.042 | 2.14 ± 0.064 | 2.36 ± 0.028 |
| DKEKEENNDDALDLDLD [MED4] | 2.92 ± 0.072 | 3.12 ± 0.095 | 2.95 ± 0.063 | 3.16 ± 0.054 |
| NKTVNEAAKPSLSFGSG [YJL041W/NSP1] | 3.5 ± 0.13 | 3.01 ± 0.083 | 2.08 ± 0.21 | 3.21 ± 0.078 |
| WYQFSNSKDHKKITLQL [SIN4] | 3.35 ± 0.13 | 3.47 ± 0.12 | 2.47 ± 0.22 | 2.86 ± 0.068 |
| NSNTNLNSLSPQAILAK [SWI1] | 2.28 ± 0.046 | 1.93 ± 0.033 | 1.92 ± 0.054 | 2.02 ± 0.03 |
| RRIKEAEENLKKRIRLP [YIL149C/MLP2] | 2.26 ± 0.08 | 2.23 ± 0.067 | 1.88 ± 0.12 | 2.02 ± 0.07 |
| INELTLLVQKRFKYAPG [RPS3] | 2.83 ± 0.2 | 2.81 ± 0.14 | 2.75 ± 0.12 | 2.96 ± 0.13 |
| QGTNSVPNSIGNIFSNI [SNF5] | 2.91 ± 0.068 | 3.12 ± 0.095 | 3.15 ± 0.12 | 2.98 ± 0.052 |
| LIERYYPKLTLDFQTNK [RPS17A] | 3.12 ± 0.074 | 3.01 ± 0.061 | 3.02 ± 0.045 | 2.74 ± 0.053 |
| QAIKEASYVNIPVIALT [RPS0A] | 2.07 ± 0.068 | 2 ± 0.061 | 2.15 ± 0.12 | 1.78 ± 0.057 |
| ENGTLLVPPPRTIANQD [RPR2] | 3.01 ± 0.054 | 3.05 ± 0.052 | 2.81 ± 0.05 | 2.99 ± 0.036 |
| VNLPGGILRRKSESDEL [RRP4] | 3.31 ± 0.15 | 3.29 ± 0.15 | 2.88 ± 0.1 | 3.29 ± 0.14 |
| LLGNCYSLRLINKEIFH [SRB8] | 1.79 ± 0.069 | 1.46 ± 0.094 | 1.46 ± 0.17 | 1.36 ± 0.073 |
| QANTEPENITKREASRG [MCD1] | 3.01 ± 0.079 | 2.84 ± 0.073 | 3.03 ± 0.06 | 3.13 ± 0.047 |
| NEVYSAYVVNDTAPKPN [DLS1] | 3.47 ± 0.12 | 3.1 ± 0.12 | 2.95 ± 0.099 | 3.25 ± 0.066 |
| YLAKLSKQLSLEEKKKR [IRR1] | 2.65 ± 0.098 | 2.75 ± 0.085 | 2.44 ± 0.11 | 2.86 ± 0.085 |

| Sequence | protein stability index (doa10∆) | protein stability index (pdr5∆) | protein stability index (san1∆) | protein stability index (ubr1∆) |
| --- | --- | --- | --- | --- |
| HLDSFNYFVDTDLKKII [RET1] | 2.69 ± 0.094 | 2.85 ± 0.08 | 2.67 ± 0.1 | 2.64 ± 0.038 |
| YTVNVVDVFAMPQSGTG [RPN11] | 3.08 ± 0.088 | 3.28 ± 0.1 | 3.3 ± 0.063 | 3.07 ± 0.077 |
| LNLEQVTLNKYCSGNIY [YJL039C/NUP192] | 2.37 ± 0.044 | 2.16 ± 0.048 | 2.59 ± 0.052 | 2.39 ± 0.046 |
| IPKPRTAGKTSVKSART [SNF2] | 3.38 ± 0.1 | 3.26 ± 0.069 | 2.89 ± 0.065 | 3.09 ± 0.048 |
| SPYAAMLAAQDVAAKCK [RPS14A] | 2.28 ± 0.05 | 1.82 ± 0.048 | 1.62 ± 0.067 | 1.88 ± 0.048 |
| HFRAPSRILYKAIRGMV [RPL16B] | 2.19 ± 0.096 | 2.67 ± 0.059 | 2.14 ± 0.1 | 2.21 ± 0.062 |
| LSKINAIQLDYSTANEY [RPN3] | 3.13 ± 0.084 | 2.15 ± 0.066 | 3.17 ± 0.085 | 3.06 ± 0.062 |
| LSAPLSKELRAQYGIKA [RPL26A] | 2.91 ± 0.14 | 2.31 ± 0.12 | 3.48 ± 0.12 | 1.87 ± 0.15 |
| IKVTVQLKIQNRQAAAS [RPL12A] | 1.57 ± 0.052 | 2 ± 0.052 | 1.75 ± 0.1 | 2.16 ± 0.04 |
| AGGGSNKSSVRPTGGAN [MED6] | 2.93 ± 0.09 | 3.12 ± 0.1 | 2.79 ± 0.096 | 3.11 ± 0.077 |
| SIATKRFDAQTGSDREV [RPT3] | 3.28 ± 0.13 | 3.17 ± 0.1 | 3.17 ± 0.077 | 3.48 ± 0.11 |
| FRNPTPLLSNYASKINR [RGR1] | 1.44 ± 0.058 | 1.6 ± 0.045 | 1.34 ± 0.11 | 1.66 ± 0.048 |
| TTTVLKRYANHTQDIIG [RET1] | 2.04 ± 0.083 | 2.75 ± 0.093 | 3.02 ± 0.051 | 2.9 ± 0.055 |
| DKITLHDEKTLAPSKHQ [SIR4] |  | 2.68 ± 0.16 | 2.44 ± 0.2 | 2.92 ± 0.19 |
| DKVSSCFPQYVNSKQGA [NNF1] | 2.07 ± 0.088 | 2.23 ± 0.091 | 2.11 ± 0.12 | 2.95 ± 0.092 |
| DIGKGAETTFLQDVIAL [RPC53] | 2.52 ± 0.073 | 2.31 ± 0.1 | 2.38 ± 0.11 | 2.71 ± 0.056 |
| TLPEKKQFDSIFNSNKA [SIR4] | 2.71 ± 0.042 | 2.77 ± 0.045 | 2.82 ± 0.034 | 2.8 ± 0.035 |
| AGLTRSDRSLSEDLFAD [BRR2] | 3.04 ± 0.26 |  | 3.56 ± 0.2 |  |
| TEALLLEHDVEYRPFSK [DIS3] | 3.18 ± 0.095 | 3.08 ± 0.085 | 3.17 ± 0.08 | 3.3 ± 0.082 |
| NGKDSEIMYTGVSISVS [SMC3] | 3.29 ± 0.22 | 2.87 ± 0.21 | 2.83 ± 0.1 | 2.29 ± 0.17 |
| STKVENSAIIQNLRKEL [YIL149C/MLP2] | 3.2 ± 0.084 | 2.88 ± 0.12 | 3.28 ± 0.071 | 3.3 ± 0.051 |
| IMNMIENVEKKEAALKT [SMC2] | 1.76 ± 0.082 | 1.83 ± 0.079 | 1.67 ± 0.092 | 1.69 ± 0.05 |
| LNDMNTEISGLKNVNKR [SMC3] | 3.26 ± 0.064 | 3.27 ± 0.072 | 3.06 ± 0.058 | 3.12 ± 0.045 |
| NEAPPKTSLADWQKEDG [YMR153W/NUP53] | 2.74 ± 0.13 | 3.14 ± 0.1 | 2.56 ± 0.16 | 2.93 ± 0.15 |
| EQLKEQMEDMEESINEF [SMC4] | 3.17 ± 0.21 | 3.2 ± 0.1 | 3.17 ± 0.048 |  |
| KAFKICEAAVEISKKDF [SIR3] | 3.19 ± 0.13 | 2.88 ± 0.082 | 2.79 ± 0.14 | 2.85 ± 0.12 |
